Assay results taken from patent US20130231277A1 (NEW YORK UNIVERSITY, published 2013).

Assays:
[1] = biological target: FGFR1c endogenously expressed by HEK293 cells transiently transfected with murine βKlotho (UniProt P11362 22-822); experiment: cell-based or functional assay
[2] = biological target: T1, ectodomain of murine βKlotho (F53 to L995 of SEQ ID NO: 218) with a C-terminal FLAG tag (murine, UniProt Q99N32 53-995); experiment: SPR competition; FGF21 immobilized, fixed βKlotho ectodomain mixed with increasing FGF21 (FIG. 7A)
T1 construct: Expressed in HEK293 cells and purified from culture media; also called βKlotho ectodomain; not shown: C-terminal FLAG tag
T1 sequence: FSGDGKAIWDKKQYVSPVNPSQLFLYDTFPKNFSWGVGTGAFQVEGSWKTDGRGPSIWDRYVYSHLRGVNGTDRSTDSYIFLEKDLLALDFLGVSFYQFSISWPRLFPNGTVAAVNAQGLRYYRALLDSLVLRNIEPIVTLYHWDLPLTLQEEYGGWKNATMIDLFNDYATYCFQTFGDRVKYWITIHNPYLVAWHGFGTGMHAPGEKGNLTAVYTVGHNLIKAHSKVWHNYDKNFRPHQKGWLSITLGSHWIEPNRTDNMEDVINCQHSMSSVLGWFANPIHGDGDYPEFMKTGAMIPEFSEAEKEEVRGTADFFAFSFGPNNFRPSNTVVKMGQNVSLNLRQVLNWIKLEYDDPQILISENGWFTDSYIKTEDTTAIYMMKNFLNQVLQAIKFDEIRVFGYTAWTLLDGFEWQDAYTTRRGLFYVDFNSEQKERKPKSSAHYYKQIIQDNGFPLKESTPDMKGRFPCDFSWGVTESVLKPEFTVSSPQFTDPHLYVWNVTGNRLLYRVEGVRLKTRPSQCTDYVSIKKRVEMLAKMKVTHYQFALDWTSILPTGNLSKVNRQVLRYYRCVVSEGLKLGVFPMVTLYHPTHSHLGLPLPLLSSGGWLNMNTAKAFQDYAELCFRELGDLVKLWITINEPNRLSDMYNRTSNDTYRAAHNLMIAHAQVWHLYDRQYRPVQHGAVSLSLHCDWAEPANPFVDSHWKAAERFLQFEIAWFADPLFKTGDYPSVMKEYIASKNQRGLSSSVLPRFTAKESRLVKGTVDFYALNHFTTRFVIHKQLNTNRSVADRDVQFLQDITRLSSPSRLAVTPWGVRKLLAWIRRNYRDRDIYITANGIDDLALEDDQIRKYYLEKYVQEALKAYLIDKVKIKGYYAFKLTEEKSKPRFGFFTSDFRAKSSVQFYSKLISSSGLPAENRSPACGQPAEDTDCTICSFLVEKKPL
Experimental: Increasing concentrations of FGF21 were mixed with a fixed concentration of βKlotho ectodomain, and the mixtures were passed over a FGF21 chip. […] Increasing concentrations of FGF21²⁹⁻¹⁹⁰/FGF19¹⁹⁷⁻²¹⁶ chimera were mixed with a fixed concentration of βKlotho ectodomain, and the mixtures were passed over a FGF21 chip. […] The figure was created from the data shown in FIGS. 7A-B, which are representative of two independent experiments.
SPR experiments were performed on a Biacore 2000 instrument (Biacore AB), and all the protein-protein and protein-peptide interactions were studied at 25° C. in HBS-EP buffer (10 mM HEPES-NaOH, pH 7.4, 150 mM NaCl, 3 mM EDTA, 0.005% (v/v) polysorbate 20). Proteins were immobilized by amine coupling on flow channels of research grade CM5 chips (Biacore AB). Proteins were injected over a CM5 chip at a flow rate of 50 μl min⁻¹, and at the end of each protein injection (180 s), HBS-EP buffer (50 μl min⁻¹) was flowed over the chip to monitor dissociation for 180 s. In experiments where βKlotho binding to FGFR was analyzed, the chip surface was then regenerated by injecting 50 μl of 2.0 M NaCl in 10 mM sodium/potassium phosphate, pH 6.5. In experiments where α/βKlotho binding to FGF19/21/23 or binding of the FGFR1c-βKlotho complex to FGF21 was studied, 2.0 M NaCl in 10 mM sodium acetate, pH 4.5 was used for chip regeneration. […]

[3] = biological target: T2, 1:1 complex of FGFR1c ligand-binding domain and αKlotho ectodomain (human; murine, UniProt P11362 142-365; O35082 35-982); experiment: SPR; FGF21 immobilized, 1:1 FGFR1c-αKlotho complex passed over the chip (FIG. 1D)
T2 construct: also called FGFR1c-αKlotho complex; binary FGFR1c-αKlotho complex; not shown: C-terminal FLAG tag
T2 sequence 1: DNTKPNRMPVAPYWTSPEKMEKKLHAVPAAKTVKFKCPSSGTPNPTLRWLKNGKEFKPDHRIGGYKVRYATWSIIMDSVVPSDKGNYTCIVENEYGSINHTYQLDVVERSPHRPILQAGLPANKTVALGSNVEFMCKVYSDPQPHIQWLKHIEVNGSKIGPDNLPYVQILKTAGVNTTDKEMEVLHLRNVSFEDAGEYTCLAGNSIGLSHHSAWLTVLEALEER
T2 sequence 2: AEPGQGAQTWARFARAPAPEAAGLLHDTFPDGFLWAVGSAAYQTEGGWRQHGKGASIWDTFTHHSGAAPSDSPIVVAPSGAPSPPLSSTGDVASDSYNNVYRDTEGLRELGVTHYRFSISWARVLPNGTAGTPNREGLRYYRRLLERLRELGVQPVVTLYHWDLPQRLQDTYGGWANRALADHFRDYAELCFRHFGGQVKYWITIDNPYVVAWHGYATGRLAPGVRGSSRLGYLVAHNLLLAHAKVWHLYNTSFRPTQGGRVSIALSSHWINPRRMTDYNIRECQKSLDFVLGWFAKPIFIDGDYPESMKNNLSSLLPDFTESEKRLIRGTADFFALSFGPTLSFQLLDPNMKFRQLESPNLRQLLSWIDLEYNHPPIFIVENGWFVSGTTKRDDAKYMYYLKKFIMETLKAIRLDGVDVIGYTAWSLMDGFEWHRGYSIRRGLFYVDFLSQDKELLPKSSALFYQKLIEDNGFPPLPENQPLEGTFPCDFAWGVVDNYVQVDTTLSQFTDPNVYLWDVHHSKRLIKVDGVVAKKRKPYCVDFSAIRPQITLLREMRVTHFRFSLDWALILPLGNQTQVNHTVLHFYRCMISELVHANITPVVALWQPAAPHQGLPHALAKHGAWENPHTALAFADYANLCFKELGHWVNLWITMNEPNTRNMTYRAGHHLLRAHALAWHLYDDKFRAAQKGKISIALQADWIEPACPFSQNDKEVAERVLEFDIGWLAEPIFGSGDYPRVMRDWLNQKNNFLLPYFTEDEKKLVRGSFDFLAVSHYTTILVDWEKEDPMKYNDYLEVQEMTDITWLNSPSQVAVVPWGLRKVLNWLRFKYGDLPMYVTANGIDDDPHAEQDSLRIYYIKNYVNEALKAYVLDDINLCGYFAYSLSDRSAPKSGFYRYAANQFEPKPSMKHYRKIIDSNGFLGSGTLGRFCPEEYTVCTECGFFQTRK

Chain of FGFR1c endogenously expressed by HEK293 cells transiently transfected with murine βKlotho (P11362 22-822): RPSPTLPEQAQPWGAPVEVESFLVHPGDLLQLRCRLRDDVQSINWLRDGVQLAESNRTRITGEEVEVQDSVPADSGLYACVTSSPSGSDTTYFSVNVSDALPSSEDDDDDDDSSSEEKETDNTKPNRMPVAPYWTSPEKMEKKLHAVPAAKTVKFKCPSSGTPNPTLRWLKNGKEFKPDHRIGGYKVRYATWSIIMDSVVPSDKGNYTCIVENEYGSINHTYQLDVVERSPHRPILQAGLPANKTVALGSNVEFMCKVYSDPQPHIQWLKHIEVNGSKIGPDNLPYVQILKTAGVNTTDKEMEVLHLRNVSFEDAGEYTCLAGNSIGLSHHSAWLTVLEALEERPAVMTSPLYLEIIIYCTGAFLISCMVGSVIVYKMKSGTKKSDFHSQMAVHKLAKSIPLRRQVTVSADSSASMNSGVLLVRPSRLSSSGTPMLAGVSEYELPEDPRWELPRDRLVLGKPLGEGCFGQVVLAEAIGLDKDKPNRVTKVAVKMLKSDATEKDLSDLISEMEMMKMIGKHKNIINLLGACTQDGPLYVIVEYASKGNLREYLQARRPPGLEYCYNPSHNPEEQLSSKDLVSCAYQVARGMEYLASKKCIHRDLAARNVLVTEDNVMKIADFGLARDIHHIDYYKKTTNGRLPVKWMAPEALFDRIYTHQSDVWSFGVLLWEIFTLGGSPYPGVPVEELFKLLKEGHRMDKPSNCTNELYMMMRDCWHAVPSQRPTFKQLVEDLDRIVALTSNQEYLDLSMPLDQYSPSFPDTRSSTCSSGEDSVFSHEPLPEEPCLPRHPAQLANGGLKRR

B1: human FGF21, secreted bioactive form (H29 to S209 of SEQ ID NO: 100) (ligand)
chain: HPIPDSSPLLQFGGQVRQRYLYTDDAQQTEAHLEIREDGTVGGAADQSPESLLQLKALKPGVIQILGVKTSRFLCQRPDGALYGSLHFDPEACSFRELLLEDGYNVYQSEAHGLPLHLPGNKSPHRDPAPRGPARFLPLPGLPPALPEPPGILAPQPPDVGSSDPLSMVGPSQGRSPSYAS
notes: Used both immobilized on the SPR chip and in solution; also called wild-type FGF21; native FGF21
Induction of Egr1 protein expression (immunoblot, HEK293 cells co-expressing FGFR1c and βKlotho) [1]: > 3 fold greater concentration than the 30 ng ml^-1 of the Q104M mutant | binding result [2]: binds | binding result [3]: no binding
